Measured values: patent publication US20100092505A1, “Method for Shielding Functional Sites or Epitopes on Proteins” (priority 2005, published 2010)
Where no end group is shown, it is not given here.

Experiments:
[1] = Isoelectric point (pI) of chimeric peptides and gp41 mimetics; assay type: physicochemical
[2] = disulfide-linked trimer; refers to U.S. Provisional Applications 60/576,062 and 60/636,724; cited from earlier work
guinea pigs = assay: ELISA of sera from guinea pigs immunized under homologous and heterologous Prime/Boost regimens; assay type: in vivo; details: guinea pig serum; prime plus two boosts; PEGylated vaccine in both homologous and heterologous modality; QS21 adjuvant
Description: The Prime/Boost pair is shown below each group of bars. The ELISA geometric mean titers (GMT) against each antigen are a true reflection of the relative amount of antibodies with the corresponding specificity present in the serum.
Immunogenicity of the SMW-PEGylated vaccine—Animal studies were conducted in guinea pigs to compare the antibody response elicited by the non-PEGylated vaccine (CCIZN17)3 and the PEGylated vaccine (CCIPN17)3. The latter was used both in a homologous modality (i.e., using a priming injection with the antigen, followed by two boost injections with the same antigen) and a heterologous modality (i.e., using a priming injection with the non-PEGylated antigen (CCIZN17)3, followed by two boost injections with the PEGylated antigen (CCIPN17)3) (see FIG. 4). The PEGylated antigens were administered to the animals along with QS21 as an adjuvant (Antigenics; New York, N.Y.). Analysis of the immune response was performed by ELISA. To eliminate any bias due to differences in the absorption capacity of the antigens on the ELISA plate, all the capture antigens were biotinylated, and the ELISA plate was coated with streptavidin prior to the addition of the capture biotinylated molecules. […] This is identical in (CCIZN17)3 and (CCIPN17)3 and, accordingly, the measured GMT are identical when measured against either antigen.

patients = details: cited from earlier work

With “(CCGGIEKKIEEIEKKIEEIEKKIEEIEKLLQLTVWGIKQLQARIL)3 [(CCEZN17)3]” the pI ([1]; Table 6, gp41 mimetics) was 5.30.

For “(CCGGIKKEIEAIKKEQEAIKKKIEAIEKLLQLTVWGIKQLQARIL)3 (not fully specified (N-terminus, C-terminus, bridges); printed as (CCGGIKKEIEAIKKEQEAIKKKIEAIEKLLQLTVWGIKQLQARIL)3; also: disulfide-linked trimer) [(CCIZN17)3]”, the “stability relative to the non-covalent IZN17 trimeric coiled-coil” value [2] is listed as “more stable than the original IZN17 trimeric coiled-coil” and the “antibody response against the scaffold moiety (ELISA GMT, capture antigens (Biotin-CCIZ)3 and (Biotin-CCIP)3)” value (guinea pigs) is listed as “comparable amounts against the whole antigen and the scaffold moiety alone”.

For “AN-1792: Elan/Wyeth Aβ 1-42 peptide vaccine for Alzheimer disease, clinical trial discontinued”, the “therapeutic effect in the clinical trial” value (patients; patients with high titers of Aβ antibodies) is listed as “reduction of plaque and some limited stabilization of memory”, the “adverse effect that led to discontinuation of the clinical trial” value (patients; patients, attributed to a T-cell response to the COOH-terminal region of Aβ) is listed as “severe brain inflammation problems” and the “induction of antibodies specific for the pathological form of Aβ” value (patients; vaccinated patients) is listed as “induced in the majority of patients”.

“IEKKIEEIEKKIEEIEKKIEEIEKLLQLTVWGIKQLQARIL [EZN17]” showed a pI ([1]; chimeric N-peptide) of 5.2.

With “IKKEIEAIKKEQEAIKKKIEAIEKLLQLTVWGIKQLQARIL [IZN17]” the pI ([1]; chimeric N-peptide) was 10.7.
